In the nanobody polyreactivity screen of Harvey et al. (2022):

assay: yeast display, Sf9 membrane polyspecificity reagent, FACS + sequencing; frameworks hold sequencing errors
Summary of the method: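 In a synthetic yeast display library (Saccharomyces cerevisiae BJ5465), nanobody expression was induced with galactose for 36–48 hours. FACS gates were set low and high (top ~1%) using anti-HA fluorescence for expression and streptavidin fluorescence for binding of the Sf9 membrane reagent. Each polyreactivity label is drawn from the gate of origin.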

Sequence | polyreactivity (PSR sort gate)
QVQLVESGGGLVQAGGSLRLSCAASGSTFVNYAMGWYRQAPGKERELVAAISSTGGSTYYADSVKGRFTISRDNAKNTVYLQMNSLKPEDTAVYYCAAYRYFKMGYWGQGTQVTVSS | high polyreactivity
QVQLVESGGGLVQAGGSLRLSCAASGSTFVPNAMGWYRQAPGKERELVAAITSGGITNYADSVQGRFTISRDNAKNTVYLQMNSLKPEDTAVYYCAVLYYILAPGYDYWGQGTQVTVSS | low polyreactivity
QVQLVESGGGLVQAGGSLRLSCAASGSTFVPNTMGWYRQAPGKDRELVAGITSGGSTYYADSVKGRFTISRDNAKNTVYLQMNSLKPEDTAVYYCAAGKHVTFSYEYRMDYWGQGSQVTVSS | low polyreactivity
QVQLVESGGGLVQAGGSLRLSCAASGSTFVPYAMGWYRQAPGKERELVARISRRGGSSTYYADSVKGRFTISRDNAKNTVYLQMNSLKPEDTAVYYCNKGHITFASVSSGPSPGGYWGQGTQVTVSS | low polyreactivity
QVQLVESGGGLVQAGGSLRLSCAASGSTFVPYAMGWYRQAPGKERELVASISWRGGSTSYADSVKGRFTISRDNAKNTVYLQMNSLKPEDTAVYYCAKRRYWAPYDYWGQGTQVTVSS | high polyreactivity
QVQLVESGGGLVQAGGSLRLSCAASGSTFVQNAMGWYRQAPGKERELVAAISKSGGRTYYADSVKGRFTISRDNEKNTVYLQINSLNAEDTAVYYCARPYSRAYDYWGQGTQVTVSS | high polyreactivity
QVQLVESGGGLVQAGGSLRLSCAASGSTFVQNAMGWYRQAPGKERELVAAISLRGGSTYYADSVKGRFTISRDNAKNTVYLQMNSLKPEDTAVYYCAADVSQRDGSVRGYDSWGQDTQVTVSS | high polyreactivity
QVQLVESGGGLVQAGGSLRLSCAASGSTFVRNAMGWYRQAPGKERELVAGISTGDNTYYADSVKGRFTISRDNAKNTVYLQMNSLKPEDSAVYYCAARGLPSNYYYYVHGYIMDYWGQGTQVTVSS | low polyreactivity
QVQLVESGGGLVQAGGSLRLSCAASGSTFVRNAMGWYRQAPGKERELVARISSSGGRTSYADSVKGRFTISRDNAKNTVYLQMNSLKPEDTAVYYCNARHYYIWWRSPTRTAMNYWGQGTQVTVSS | high polyreactivity
QVQLVESGGGLVQAGGSLRLSCAASGSTFVRNDMGWYRQAPGKERELVAAINGDGRTYYADSVKGRFTISRDNAKNTVYLQMNSLKPEDTAVYYCAADWKSSRSYSYEMDYWGQGTQVTVSS | low polyreactivity
QVQLVESGGGLVQAGGSLRLSCAASGSTFVRNVMGWYRQAPGKEREFVAAITRSGGSTYYADSVKGRFTISRDNAKNTVYLQMNSLKPEDTAVYYCIVPPGYRLSQYEYDYWGQGTQVTVSS | low polyreactivity
QVQLVESGGGLVQAGGSLRLSCAASGSTFVRYAMGWYRQAPGKERELVAAIRWSSGSTYYADSVKGRFTISRDNAKNTVYLQMNSLKPEDTAVYYCAKRQYLYTSKYDYWGQGTQVTVSS | high polyreactivity
QVQLVESGGGLVQAGGSLRLSCAASGSTFVRYAMGWYRQAPGKERELVAAISGGGSTSYADSVKGRFTISRDNAKNTVYLQMNSLKPEDTAVYYCAAEKYRWENDAYQYYTFDYWGQGTQVTVSS | low polyreactivity
QVQLVESGGGLVQAGGSLRLSCAASGSTFVRYAMGWYRQAPGKERELVAAISKRGGSTYYADSVKGRFTISRDNAKNTVYLQMNSLKPEDTAVYYCAAVPLSSRQYDYWGQGTQVTVSS | high polyreactivity
QVQLVESGGGLVQAGGSLRLSCAASGSTFVRYPMGWYRPAPGKERELVAGISRVGNTYYADSVKGRFTISRDNAKNTVYLQMNSLKPEDTAVYYCAARSSRWDGYDYWGQGTQVTVSS | high polyreactivity
QVQLVESGGGLVQAGGSLRLSCAASGSTFVSNAMGWYRQAPGKEREFVAAISGSGGSTYYADSVKGRFTISRDNAMNTVYLQMNSLKPEVTAVYYCATAGRYGRYRTYPYRSKYDYWGQGTQVTVSS | high polyreactivity

Sequence | polyreactivity (PSR sort gate)
QVQLVESGGGLVQAGGSLRLSCAASGSTFVSNAMGWYRQAPGKESELVAAISSSGGRTSYADSVKGRFTISRDHANNTVYLQMNSLKPEDTAVYYCNTLVVPYTDFKTSYNVDYWGQGTQVTVSS | low polyreactivity
QVQLVESGGGLVQAGGSLRLSCAASGSTFVSYAMGWYRQAPGKERELVAGISWSGTRTYYADSVKGRFTISRDNAKNTVYLQMNSLKPEDTAVYYFNAVYKYNYRTLDYWGQGTQVTVSS | high polyreactivity
QVQLVESGGGLVQAGGSLRLSCAASGSTFVSYDMGWYRQAPGKERELVAAIDWSGGNTDYADSVKGRFTISRDNAKNTVYLQMNSLKPEDNAVYYCAVEKFFRAEYDHWGQGTQVTVSS | low polyreactivity
QVQLVESGGGLVQAGGSLRLSCAASGSTFVTNDMGWYRQAPGKERELVAAISSGTSTNYADSVKGRFTISRDNAKNTVYLQMNSLKPEDTAVYYCAADSLKRYDYWGQGTQVTVSS | low polyreactivity
QVQLVESGGGLVQAGGSLRLSCAASGSTFVTYAMGWYRQAPGKEREFVAAISTTGTGRTYYADSVKGRFTISRDNAKNTVYLQMNSLKPEDTAVYYCAADLYGTYDYWGQGTQVTVSS | low polyreactivity
QVQLVESGGGLVQAGGSLRLSCAASGSTFVTYAMGWYRQAPGKERELVASISRGGSTKYADSVKGRFTISRDNAKNTVYLQMNSLKPEDTAVYYCAAKAKNYRLGPFDYWGQGTQVTVSS | low polyreactivity
QVQLVESGGGLVQAGGSLRLSCAASGSTFVTYARGWYRQAPGKERELVAAISRRAGRTYYADSVKGRFTISRDNAQNTVSLQMNSLKPEDTAVYYCAKQAYEAFYTGDDYDYWGQGTKVTVSS | high polyreactivity
QVQLVESGGGLVQAGGSLRLSCAASGSTFVVNAMGWYRPAQGKERELVAAISRSGTSTYYADSVKGRFTISRDNAKKTVYLQMNSLKPEDSAVYYCNAVGSYYPPDYWGQGTQVTVSS | high polyreactivity
QVQLVESGGGLVQAGGSLRLSCAASGSTFVVNAMGWYRQAPGKERELVAAIDGSDGSTYYADSVKGRFTISRDNAKNTVYLQMNSLKPEDTAVYYCAAEVLGRPDVENDYWGQGTQVTVSS | low polyreactivity
QVQLVESGGGLVQAGGSLRLSCAASGSTFVVNAMGWYRQAPGKERELVAAITQSGGSTFYADSVKGRFTISRDNAKNTVYFQMNSLKPEDTAVYYWGQGTQVTVSS | low polyreactivity
QVQLVESGGGLVQAGGSLRLSCAASGSTFVVNAMGWYSQAPGKERELVAAIDGSDGSTYYADSVKGRFTISRDNAKNTVYLQMNSLKPEDTAVYYCAAEVLGRPDVENDYWGQGTHVTVSS | low polyreactivity
QVQLVESGGGLVQAGGSLRLSCAASGSTFVWNAMGWYRQAPGKERELVAAITSSGGSTYYADSVKGRFTISRDNAKNTVYLQMNSLKPEDTAVYYCAATGVNYRGLLGVAWGNNYWGQGTQVTVSS | low polyreactivity
QVQLVESGGGLVQAGGSLRLSCAASGSTFVWYAMGWYRQAPGKEREFVATISWSDGSTYYADSVKGRFTISRDNAKNTVYLQMNSLKPEDTAVYYCASDVDRFFTYKYDYWGQGTQVTVSS | low polyreactivity
QVQLVESGGGLVQAGGSLRLSCAASGSTFVWYAMVWYRQAPGKEREFVATISWSDGSTYYADSVKGRFTISRDNAKNTVYLLMNSLKPEVTAVYYCASDVDRFFSYKYDYWGQGTQVTVSS | low polyreactivity
QVQLVESGGGLVQAGGSLRLSCAASGSTFVYNAMGSYRQAPGKEREFVAAISGSGGSTYYADSVKGRFTISRDNAKNTVYLQMNSLKPEDTAVYYCATAGRYGLYRTYPYRSKYDYWGQGTQVTVSS | high polyreactivity
